From patent US20220025021A1 (BETH ISRAEL DEACONESS MEDICAL CENTER, published 2022)

B1: MS-72 (antibody, V domains shown)
VH: QVQLVQSGPEVRKPGTSVKVSCKAPGNTLKTYDLHWVRSVPGQGLQWMGWISHEGDKKVIVERFKAKVTIDWDRSTNTAYLQLSGLTSGDTAVYYCAKGSKHRLRDYALYDDDGALNWAVDVDYLSNLEFWGQGTAVTVSS
VL: DFVLTQSPHSLSVTPGESASISCKSSHSLIHGDRNNYLAWYVQKPGRSPQLLIYLASSRASGVPDRFSGSGSDTDFTLKISRVETEDVGTYYCMQGRESPWTFGQGTKVDIKR
B2: MS-75 (antibody, V domains shown)
VH: QVQLVQSGPEVRKPGTSVKVSCKASGNTLKTYDLHWVRSVPGQGLQWMGWISHEGDKKVIVERFKAKVTIDWDRSTNTAYLQLSGLTSGDTAVYYCAKGSKHRLRDYALYDDDGALNWAVDVDYLSNLEFWGQGTAVTVSS
VL: DFVLTQSPHSLSVTPGESASISCKSSHSLIHGDRNNYLAWYVQKPGRSPQLLIYLASSRASGVPDRFSGSGSDKDFTLKISRVETEDVGTYYCMQGRESPWTFGQGTKVDIKR
B3: MS-74 (antibody, V domains shown)
VH: QVQLVQSGPEVRKPGTSVKVSCKAPGNTLKTYDLHWVRSVPGQGLQWMGWISHEGDKKVIVERFKAKVTIDWDRSTNTAYLQLSGLTSGDTAVYYCAKGSKHRLRDYALYDDDGALNWAVDVDYLSNLEFWGQGTAVTVSS
VL: DFVLTQSPHSLSVTPGESASISCKSSHSLIHGDRNNYLAWYVQKPGRSPQLLIYLASSRASGVPDRFSGSGSDKDFTLKISRVETEDVGVYYCMQGRESPWTFGQGTKVDIKR
B4: MS-79 (antibody, V domains shown)
VH: QVQLVQSGPEVRKPGTSVKVSCKAPGNTLKTYDLHWVRSVPGQGLQWMGWISHEGDKKVIVERFKAKVTITWDRSTNTAYLQLSGLTSGDTAVYYCAKGSKHRLRDYALYDDDGALNWAVDVDYLSNLEFWGQGTAVTVSS
VL: DFVLTQSPHSLSVTPGESASISCKSSHSLIHGDRNNYLAWYVQKPGRSPQLLIYLASSRASGVPDRFSGSGSDKDFTLKISRVETEDVGTYYCMQGRESPWTFGQGTKVDIKR
B5: MS-77 (antibody, V domains shown)
VH: QVQLVQSGPEVRKPGTSVKVSCKAPGNTFKTYDLHWVRSVPGQGLQWMGWISHEGDKKVIVERFKAKVTIDWDRSTNTAYLQLSGLTSGDTAVYYCAKGSKHRLRDYALYDDDGALNWAVDVDYLSNLEFWGQGTAVTVSS
VL: DFVLTQSPHSLSVTPGESASISCKSSHSLIHGDRNNYLAWYVQKPGRSPQLLIYLASSRASGVPDRFSGSGSDKDFTLKISRVETEDVGTYYCMQGRESPWTFGQGTKVDIKR
B6: MS-76 (antibody, V domains shown)
VH: QVQLVQSGPEVRKPGTSVKVSCKAPGYTLKTYDLHWVRSVPGQGLQWMGWISHEGDKKVIVERFKAKVTIDWDRSTNTAYLQLSGLTSGDTAVYYCAKGSKHRLRDYALYDDDGALNWAVDVDYLSNLEFWGQGTAVTVSS
VL: DFVLTQSPHSLSVTPGESASISCKSSHSLIHGDRNNYLAWYVQKPGRSPQLLIYLASSRASGVPDRFSGSGSDKDFTLKISRVETEDVGTYYCMQGRESPWTFGQGTKVDIKR
B7: MS-78 (antibody, V domains shown)
VH: QVQLVQSGPEVRKPGTSVKVSCKAPGNTLKTYDLHWVRSVPGQGLEWMGWISHEGDKKVIVERFKAKVTIDWDRSTNTAYLQLSGLTSGDTAVYYCAKGSKHRLRDYALYDDDGALNWAVDVDYLSNLEFWGQGTAVTVSS
VL: DFVLTQSPHSLSVTPGESASISCKSSHSLIHGDRNNYLAWYVQKPGRSPQLLIYLASSRASGVPDRFSGSGSDKDFTLKISRVETEDVGTYYCMQGRESPWTFGQGTKVDIKR
B8: MS-71 (antibody)
VH: not shown
VL: DFVLTQSPHSLSVTPGESASISCKSSHSLIHGDRNNYLAWYVQKPGRSPQLLIYLASSRASGVPDRFSGSGSGKDFTLKISRVETEDVGTYYCMQGRESPWTFGQGTKVDIKRTVAAPSVFIFPPSDEQLKSGTASVVCLLNNFYPREAKVQWKVDNALQSGNSQESVTEQDSKDSTYSLSSTLTLSKADYEKHKVYACEVTHQGLSSPVTKSFNRGEC
B9: MS-73 (antibody)
VH: not shown
VL: DFVLTQSPHSLSVTPGESASISCKSSHSLIHGDRNNYLAWYVQKPGRSPQLLIYLASSRASGVPDRFSGSGSDKDFTLKISRVEAEDVGTYYCMQGRESPWTFGQGTKVDIKRTVAAPSVFIFPPSDEQLKSGTASVVCLLNNFYPREAKVQWKVDNALQSGNSQESVTEQDSKDSTYSLSSTLTLSKADYEKHKVYACEVTHQGLSSPVTKSFNRGEC

What was measured:
Assay in all cases: cell-based or functional assay
[1] = target: HIV-1 pseudovirus 263-8 (HIV-1)
[2] = target: HIV-1 pseudovirus X1193_c1 (HIV-1)
[3] = target: HIV-1 pseudovirus 6952.v1.c20 (HIV-1)
[4] = target: HIV-1 pseudovirus SC05.8C11.2344 (HIV-1)
[5] = target: HIV-1 pseudovirus AC10.0.29 (HIV-1)
[6] = target: HIV-1 pseudovirus Ce1176_A3 (HIV-1)

Binder | IC50 (neutralization in TZM.bl cells) [1] [µg/mL] | IC80 (neutralization in TZM.bl cells) [1] [µg/mL] | IC50 (neutralization in TZM.bl cells) [2] [µg/mL] | IC80 (neutralization in TZM.bl cells) [2] [µg/mL] | IC50 (neutralization in TZM.bl cells) [3] [µg/mL] | IC80 (neutralization in TZM.bl cells) [3] [µg/mL] | IC50 (neutralization in TZM.bl cells) [4] [µg/mL] | IC80 (neutralization in TZM.bl cells) [4] [µg/mL] | IC50 (neutralization in TZM.bl cells) [5] [µg/mL] | IC80 (neutralization in TZM.bl cells) [5] [µg/mL] | IC50 (neutralization in TZM.bl cells) [6] [µg/mL] | IC80 (neutralization in TZM.bl cells) [6] [µg/mL]
B1 | 0.02 | 0.057 | 0.072 | 0.258 | 0.643 | 12.4 | 0.791 | 2.85 | 0.051 | 0.255 | 0.074 | 1.3
B2 | 0.018 | 0.086 | 0.174 | 0.591 | 0.977 | > 25 | 0.792 | 3.72 | 0.055 | 0.442 | 0.139 | 2.79
B3 | 0.013 | 0.037 | 0.086 | 0.296 | 0.285 | 15.1 | 0.415 | 1.94 | 0.041 | 0.216 | 0.028 | 0.564
B4 | 0.018 | 0.067 | 0.109 | 0.365 | 13.2 | > 25 | 0.593 | 1.97 | 0.056 | 0.404 | 0.473 | 9.05
B5 | 0.012 | 0.033 | 0.109 | 0.398 | 0.236 | 6.74 | 0.516 | 2.41 | 0.036 | 0.311 | 0.067 | 1.12
B6 | 0.015 | 0.053 | 0.126 | 0.575 | 0.844 | > 25 | 0.587 | 2.57 | 0.047 | 0.368 | 0.082 | 1.63
B7 | 0.014 | 0.053 | 0.126 | 0.452 | 0.342 | > 25 | 0.658 | 2.26 | 0.044 | 0.225 | 0.047 | 0.837
B8 | 0.014 | 0.041 | 0.072 | 0.265 | 0.325 | 7.92 | 0.425 | 1.41 | 0.035 | 0.177 | 0.04 | 0.796
B9 | 0.01 | 0.032 | 0.085 | 0.327 | 0.222 | 6.99 | 0.461 | 1.62 | 0.041 | 0.206 | 0.035 | 0.581
